Measurements: patent US20260015406A1 (University of Pennsylvania, published 2026)

Columns and labels:
[1] = biological target: switchable CAR (sCAR) with anti-PNE single chain variable fragment; experiment: flow cytometry, PNE-FITC titrated on sCAR T cells
[2] = biological target: T1, human full length CDH17, also called cadherin 17 or liver-intestine cadherin (human, UniProt Q12864 23-832); experiment: cell-based or functional assay
T1 sequence (looked up): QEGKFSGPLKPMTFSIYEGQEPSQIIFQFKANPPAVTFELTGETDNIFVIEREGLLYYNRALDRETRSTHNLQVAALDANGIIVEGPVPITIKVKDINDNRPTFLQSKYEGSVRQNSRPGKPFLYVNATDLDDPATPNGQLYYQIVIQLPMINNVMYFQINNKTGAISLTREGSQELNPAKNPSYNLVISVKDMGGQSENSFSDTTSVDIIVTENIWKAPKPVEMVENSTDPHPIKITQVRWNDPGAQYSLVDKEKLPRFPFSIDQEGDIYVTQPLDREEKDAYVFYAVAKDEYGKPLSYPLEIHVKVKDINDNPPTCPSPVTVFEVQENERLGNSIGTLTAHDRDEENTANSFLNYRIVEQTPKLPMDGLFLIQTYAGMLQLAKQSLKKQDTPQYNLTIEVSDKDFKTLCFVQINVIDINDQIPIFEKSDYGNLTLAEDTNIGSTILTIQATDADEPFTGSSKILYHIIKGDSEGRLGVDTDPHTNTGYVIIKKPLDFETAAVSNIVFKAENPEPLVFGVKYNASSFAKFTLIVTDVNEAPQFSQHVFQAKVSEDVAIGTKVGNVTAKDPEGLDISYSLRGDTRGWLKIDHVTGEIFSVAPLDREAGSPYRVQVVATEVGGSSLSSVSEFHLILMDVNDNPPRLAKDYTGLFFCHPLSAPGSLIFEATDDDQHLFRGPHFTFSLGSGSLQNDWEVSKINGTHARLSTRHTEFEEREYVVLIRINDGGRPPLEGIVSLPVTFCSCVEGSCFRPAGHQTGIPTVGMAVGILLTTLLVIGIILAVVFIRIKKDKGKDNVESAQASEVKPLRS

[3] = biological target: T2, human full length aminopeptidase N (APN, aka CD13) (human, UniProt P15144 2-967); experiment: flow cytometry on patient-derived AML cells (AML2844)
T2 construct: whole, on cells

[4] = biological target: T1, human full length CDH17, also called …; experiment: flow cytometry, VHH1-expressing phage on HEK293T cells transfected with membrane protein cDNAs
Method: (§1) Next, to identify the protein antigen of the isolated VHH1 nanobody, ˜3000 human cell membrane protein cDNAs were prepared and transfected into HEK293T cells individually, followed by flow cytometry analysis with the VHH1-expressing phage and FITC-labeled secondary antibody against phage M13 protein (FIG. 12A). […] Human or mouse CDH17 cDNA was transiently transfected into HEK293T cells, followed by flow cytometry analysis with the VHH1-expressing phage and FITC-labeled secondary antibody against phage M13 protein.

[5] = biological target: T3, mouse CDH17 (mouse, UniProt Q9R100 26-827); experiment: flow cytometry, VHH1-expressing phage on HEK293T cells transiently transfected with CDH17 cDNA
T3 construct: whole, on cells
T3 sequence (looked up): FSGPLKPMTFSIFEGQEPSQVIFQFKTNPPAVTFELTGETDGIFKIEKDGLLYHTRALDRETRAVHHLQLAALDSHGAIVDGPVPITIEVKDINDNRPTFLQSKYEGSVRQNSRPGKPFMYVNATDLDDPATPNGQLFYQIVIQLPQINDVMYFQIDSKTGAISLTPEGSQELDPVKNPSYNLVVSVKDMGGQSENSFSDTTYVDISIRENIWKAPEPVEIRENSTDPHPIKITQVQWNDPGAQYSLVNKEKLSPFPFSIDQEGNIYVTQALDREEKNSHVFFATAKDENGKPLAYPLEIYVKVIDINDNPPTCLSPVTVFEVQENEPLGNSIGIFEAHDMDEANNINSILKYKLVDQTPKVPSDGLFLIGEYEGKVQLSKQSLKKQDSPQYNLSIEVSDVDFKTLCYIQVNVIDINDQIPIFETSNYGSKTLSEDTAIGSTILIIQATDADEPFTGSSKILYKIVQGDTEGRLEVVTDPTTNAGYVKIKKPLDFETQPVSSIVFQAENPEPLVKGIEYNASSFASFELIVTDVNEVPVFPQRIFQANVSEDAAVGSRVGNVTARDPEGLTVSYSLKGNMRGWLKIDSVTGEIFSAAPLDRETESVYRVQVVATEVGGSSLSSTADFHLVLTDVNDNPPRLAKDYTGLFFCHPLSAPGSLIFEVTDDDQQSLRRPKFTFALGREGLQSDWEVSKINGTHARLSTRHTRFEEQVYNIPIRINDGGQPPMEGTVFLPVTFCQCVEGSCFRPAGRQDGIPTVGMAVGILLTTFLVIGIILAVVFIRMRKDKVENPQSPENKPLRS
Method: as §1

[6] = biological target: T2, human full length aminopeptidase N …; experiment: flow cytometry on THP-1 cells (endogenous CD13)

T2 sequence (P15144 2-967): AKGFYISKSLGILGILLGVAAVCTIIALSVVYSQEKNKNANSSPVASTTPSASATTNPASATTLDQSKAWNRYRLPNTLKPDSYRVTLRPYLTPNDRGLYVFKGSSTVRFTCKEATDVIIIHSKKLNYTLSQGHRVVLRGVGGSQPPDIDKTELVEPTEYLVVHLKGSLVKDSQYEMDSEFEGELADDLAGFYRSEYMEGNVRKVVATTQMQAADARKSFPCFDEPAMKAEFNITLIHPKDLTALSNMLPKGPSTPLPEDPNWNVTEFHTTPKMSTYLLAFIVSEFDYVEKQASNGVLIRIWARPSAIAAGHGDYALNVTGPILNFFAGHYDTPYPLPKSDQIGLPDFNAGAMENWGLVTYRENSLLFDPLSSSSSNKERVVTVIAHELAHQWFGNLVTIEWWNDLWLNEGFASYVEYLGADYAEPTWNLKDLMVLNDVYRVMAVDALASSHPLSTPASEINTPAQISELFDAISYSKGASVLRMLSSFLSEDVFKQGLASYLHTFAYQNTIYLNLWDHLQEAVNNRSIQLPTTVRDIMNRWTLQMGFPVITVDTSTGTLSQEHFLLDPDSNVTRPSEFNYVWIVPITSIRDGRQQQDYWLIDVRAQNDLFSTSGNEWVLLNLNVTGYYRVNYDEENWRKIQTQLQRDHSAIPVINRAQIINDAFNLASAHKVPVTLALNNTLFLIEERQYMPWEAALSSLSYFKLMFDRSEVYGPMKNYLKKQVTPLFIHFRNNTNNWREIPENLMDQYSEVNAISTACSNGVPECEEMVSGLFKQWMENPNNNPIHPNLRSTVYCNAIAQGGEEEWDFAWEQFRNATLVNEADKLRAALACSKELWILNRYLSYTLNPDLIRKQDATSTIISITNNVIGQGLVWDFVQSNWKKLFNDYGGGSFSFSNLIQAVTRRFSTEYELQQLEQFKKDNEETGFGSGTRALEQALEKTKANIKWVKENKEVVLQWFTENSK

FITC-labeled PNE-peptide
EC50 [1]: 0.001 µM

B1: VLV-DM1 (VHH, not shown: small tags and cut ends)
VHH 1: QVQLQESGGGLVQPGGSTRLSCVSSRTFSYYDMGWFRQAPGKEREFVALLSWNGENAEYSDSVMGRFTVSRGNTQNSVNLQMNNLKPEDTGIYYCAVTHGGARSVRSWGQGTQVTVSS
VHH 2: QVQLQESGGGLVQPGGSTRLSCVSSRTFSYYDMGWFRQAPGKEREFVALLSWNGENAEYSDSVMGRFTVSRGNTQNSVNLQMNNLKPEDTGIYYCAVTHGGARSVRSWGQGTQVTVSS
modifications: Mertansine (DM1) is conjugated to the VLV protein; the residues, number of drugs and chemical linker are not stated. In reality one polypeptide: the two VHH1 units are joined by a peptide linker whose letters are not given.
IC50, in vitro killing of BON cells (MTT assay) [2]: 0.0012 µM

B2: Nb163 (VHH)
VHH: QVQLQESGGGLVQPGGSLRLSCVPSGFTFDGYLIGWFRQAPGSERKAVSCISVNGDRTNYADSVKGRFTISRDNAKNTVYLQMNSLRPNDTAIYYCATRRGNRLYNNNCPYFEYGTWGQGTQVTVSS
notes: also called VHH163; VH163
binding result [3]: binds

B3: VHH1 nanobody (VHH)
VHH: QVQLQESGGGLVQPGGSTRLSCVSSRTFSYYDMGWFRQAPGKEREFVALLSWNGENAEYSDSVMGRFTVSRGNTQNSVNLQMNNLKPEDTGIYYCAVTHGGARSVRSWGQGTQVTVSS
notes: From a naive llama phage library panned on BON cells
binding result [4]: binds
binding result [5]: binds

B4: Nb157-C-PNE (VHH)
VHH: QVQLQESGGGLVQPGGSLSLSCTASGFTFSSYSMAWVRQAPGKGPEWVSGIYPSDGKTRYADFVKGRFSISRDNAKNMLYLQMNNLEPEDTALYYCARGITGLGPRGQGTQVTVSS
notes: also called VHH157-C-PNE; Nb157 with C-terminal PNE; not shown: PNE, a fourteen amino acid peptide
Kd [6]: ~0.035 µM

B5: Nb157 (VHH)
VHH: QVQLQESGGGLVQPGGSLSLSCTASGFTFSSYSMAWVRQAPGKGPEWVSGIYPSDGKTRYADFVKGRFSISRDNAKNMLYLQMNNLEPEDTALYYCARGITGLGPRGQGTQVTVSS
notes: Llama nanobody from the THP-1-immunised library; also called VHH157; VH157
Kd [6]: ~0.035 µM

B6: Nb157-N-PNE (VHH)
VHH: QVQLQESGGGLVQPGGSLSLSCTASGFTFSSYSMAWVRQAPGKGPEWVSGIYPSDGKTRYADFVKGRFSISRDNAKNMLYLQMNNLEPEDTALYYCARGITGLGPRGQGTQVTVSS
notes: also called VHH157-N-PNE; Nb157 with N-terminal PNE; not shown: PNE, a fourteen amino acid peptide
Kd [6]: ~0.09 µM
